This note sets out measurements from patent EP2481750A1.

Assay [1] has as its target murine B7-DC (murine) (UniProt Q9WUL5). Description: cell-based or functional assay.
For assay [2] the target is unchanged. Description: flow cytometry on 293T cells transfected with murine B7-DC. On the technique in general: Flow cytometry measures light scatter and fluorescence of single cells or particles in a stream.
Assay [3] shares this target. Description: flow cytometry competition on murine bone marrow derived DC; DC preincubated with sHIgM12, then stained with PD-1.Ig.
Assay [4] shares this target. The experiment in a line: flow cytometry competition on murine bone marrow derived DC; DC preincubated with PD-1.Ig, then stained with sHIgM12.

murine B7-DC (murine), sequence (Q9WUL5 20-247): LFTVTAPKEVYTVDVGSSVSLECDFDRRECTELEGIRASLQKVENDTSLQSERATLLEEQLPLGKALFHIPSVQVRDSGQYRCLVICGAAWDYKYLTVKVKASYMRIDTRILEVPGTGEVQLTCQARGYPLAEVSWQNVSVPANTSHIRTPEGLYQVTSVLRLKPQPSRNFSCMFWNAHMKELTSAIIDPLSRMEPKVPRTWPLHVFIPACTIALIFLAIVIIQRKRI

On to “sHIgM12 (pentameric human monoclonal IgM/kappa antibody, B7-DC cross-linking antibody)”, for which, in the assay with murine B7-DC (murine) [1], the FITC-MFI (uptake of FITC-BSA by bone marrow derived DC in vitro) was found to be 584 MFI; the FITC-MFI (uptake of FITC-OVA by splenic DC after treatment in vivo) amounted to 116 MFI; the GFP+, CD11c+ DC recovered from draining lymph nodes, against polyclonal HIgM control was 5 fold; the IL-12 p70 release by DC (ELISA), against LPS worked out at 3 fold. In the assay with murine B7-DC (murine) [1], this substance showed an ability of lymph node DC to induce an antigen-specific T cell response of 10 fold and a percentage of cellular metabolism (Alamar Blue) maintained 24 hours after cytokine withdrawal of 80%. The substance also came in with a percent of transfected cells stained in the assay with murine B7-DC (murine) [2] of 97%. The substance also gave a PD-1 binding remaining (% of the level without sHIgM12) with murine B7-DC (murine) [3] of 20%.
In the assay with murine B7-DC (murine) [4], PD-1.Ig fusion protein (Fc fusion) yielded a sHIgM12 staining remaining (% of the level without PD-1) of 50%.
